Data taken from patent US20210206865A1 (Regeneron, published 2021).

Legend:
[1] = target: T1, human BCMA-MMH (extracellular domain of human BCMA with C-terminal myc-myc-hexahistidine tag) (human); test: SPR Biacore, 25 C, mAb captured via anti-hFc
T1 construct: Monomeric antigen; also called hBCMA.mmh; hBCMA.mmH
T1 chain: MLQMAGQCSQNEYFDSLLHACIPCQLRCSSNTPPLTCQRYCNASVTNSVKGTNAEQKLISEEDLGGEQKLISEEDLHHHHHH
Protocol: (§1) The CM5 Biacore sensor surface was derivatized by amine coupling with a monoclonal mouse anti-human Fc antibody (GE, #BR-1008-39) to capture purified anti-BCMA mAbs and anti-BCMA×anti-CD3 bispecific mAbs. All Biacore binding studies were performed in a buffer composed of 0.01M HEPES pH 7.4, 0.15M NaCl, 3 mM EDTA, 0.05% v/v Surfactant P20 (HBS-ET running buffer). […] Antigen samples were then injected over the anti-BCMA and anti-BCMA×anti-CD3 bispecific mAbs captured surfaces at a flow rate of 30 μL/minute. Antibody-reagent association was monitored for 5 minutes while dissociation in HBS-ET running buffer was monitored for 10 minutes. All of the binding kinetics experiments were performed at 25° C. Kinetic association (kₐ) and dissociation (kd) rate constants were determined by fitting the real-time sensorgrams to a 1:1 binding model using Scrubber 2.0c curve fitting software. Binding dissociation equilibrium constants (KD) and dissociative half-lives (t1/2) were calculated from the kinetic rate constants as: […]

[2] = target: T2, human BCMA-MFC (extracellular domain of human BCMA with C-terminal mFc tag) (human); test: SPR Biacore, 25 C, mAb captured via anti-hFc
T2 construct: also called hBCMA.mFc
T2 chain: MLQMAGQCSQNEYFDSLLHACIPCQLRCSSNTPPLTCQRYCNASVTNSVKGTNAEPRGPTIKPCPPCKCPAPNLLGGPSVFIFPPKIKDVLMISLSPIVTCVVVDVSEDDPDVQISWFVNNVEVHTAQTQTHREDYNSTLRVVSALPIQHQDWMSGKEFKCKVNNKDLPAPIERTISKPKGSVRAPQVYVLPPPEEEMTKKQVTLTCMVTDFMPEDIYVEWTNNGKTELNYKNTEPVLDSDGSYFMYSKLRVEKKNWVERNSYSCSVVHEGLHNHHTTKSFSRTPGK
Protocol: as §1

[3] = target: T3, monkey BCMA-MFC (monkey BCMA with C-terminal mFc tag) (monkey); test: SPR Biacore, 25 C, mAb captured via anti-hFc
T3 construct: also called mfBCMA.mFc
Protocol: as §1

[4] = target: T4, mouse BCMA-MFC (BCMA with C-terminal mFc tag) (mouse); test: SPR Biacore, 25 C, mAb captured via anti-hFc
T4 construct: Tested at a single concentration of 30 nM; also called mBCMA.mFc
T4 chain: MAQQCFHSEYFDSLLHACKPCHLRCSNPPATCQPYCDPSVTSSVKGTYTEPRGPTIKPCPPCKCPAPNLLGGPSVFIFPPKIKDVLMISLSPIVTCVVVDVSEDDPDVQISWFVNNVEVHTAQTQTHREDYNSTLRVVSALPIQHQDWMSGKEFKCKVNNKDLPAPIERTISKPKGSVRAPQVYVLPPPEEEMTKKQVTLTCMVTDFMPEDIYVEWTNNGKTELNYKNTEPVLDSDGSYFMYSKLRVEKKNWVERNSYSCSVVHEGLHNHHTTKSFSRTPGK
Protocol: as §1

[5] = target: T5, human BCMA on the surface of cell lines (NCI-H929, MM.1S, OPM-2, RPMI-8226, Daudi, Raji, MOLP-8, U266) (human, UniProt Q02223 1-184); test: cell-based or functional assay
T5 sequence: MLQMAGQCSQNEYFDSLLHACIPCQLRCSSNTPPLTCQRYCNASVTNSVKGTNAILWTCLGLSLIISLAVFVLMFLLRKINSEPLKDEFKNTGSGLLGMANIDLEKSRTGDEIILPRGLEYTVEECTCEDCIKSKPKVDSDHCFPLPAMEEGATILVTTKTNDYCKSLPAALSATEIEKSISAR

[6] = target: T5, human BCMA on the surface of cell lines …; test: cell-based or functional assay; remark: listed apart in the source
[7] = target: T5, human BCMA on the surface of cell lines …; test: cell-based or functional assay; remark: listed apart in the source
[8] = target: T5, human BCMA on the surface of cell lines …; test: cell-based or functional assay; remark: listed apart in the source
[9] = target: T6, monkey BCMA-MMH (monkey BCMA with C-terminal myc-myc-hexahistidine tag) (monkey); test: SPR Biacore, 25 C, mAb captured via anti-hFc
T6 construct: Monomeric antigen; also called mfBCMA.mmh
Protocol: as §1

Binder	90 nM hBCMA.mmh Bind (RU) [1] [RU]	Kd [1] [nM]	koff [1] [s⁻¹]	kon [1] [M⁻¹ s⁻¹]	t1/2 [1] [min]	30 nM hBCMA.mFc Bind (RU) [2] [RU]	Kd [2] [nM]	koff [2] [s⁻¹]	kon [2] [M⁻¹ s⁻¹]	t1/2 [2] [min]	30 nM mfBCMA.mFc Bind (RU) [3] [RU]	30 nM mBCMA.mFc Bind (RU) [4] [RU]	Kd [4] [nM]	koff [4] [s⁻¹]	kon [4] [M⁻¹ s⁻¹]	t1/2 [4] [min]	MFI fold change over cells incubated in media only, NCI-H929, overnight with 67 nM antibody [5] [fold]	MFI fold change over cells incubated in media only, NCI-H929, overnight with 667 nM antibody [5] [fold]	MFI fold change over cells incubated in media only, Molp8, overnight with 67 nM antibody [6] [fold]	MFI fold change over cells incubated in media only, Molp8, overnight with 667 nM antibody [6] [fold]	also measured
mAb16732 (REGN4514) (antibody, V domains shown, Anti-BCMA monoclonal antibody; Captured by anti-human Fc in SPR) VH: EVQLVESGGGLVQPGRSLRLSCAASGFTFDDYAMHWVRQAPGKGLEWVSGISWNSGNMGYADSVKGRFTISRDNAKNSLFLQMHSLRAEDTAFYYCAKVRLTAFDFWGQGTLVTVSS VL: DIQMTQSPSSLSASVGDRVTITCRTSQSIGNYLNWFQQKPGKAPKLLIYTASSLQNGVPSRFTGSGSGTDFTLTISSLQPEDFVIYYCQQSFSTPYTFGQGTKLEIK	25.3	2.69	0.00285	1.06e+06	4.1	124	0.0422	4.53e-05	1.07e+06	255	40.3	110	0.677	0.000269	397000	43	–	–	–	–	Kd [3]: 14.7 nM; koff [3]: 0.00724 s⁻¹; kon [3]: 492000 M⁻¹ s⁻¹; t1/2 [3]: 1.6 min
mAb16747 (REGN4515) (antibody, V domains shown, Anti-BCMA monoclonal antibody; Captured by anti-human Fc in SPR) VH: QVQLVESGGGLVKPGGSLRLSCAASGFTFSDYYISWIRQAPGKGLEWVSYISSSGSSIKYADSVKGRFTISRDNAKNSLYLQMNSLRAEDTAVYYCAREGGNYGMDVWGQGTTVTVSS VL: DIQMTQSPSSVSASVGDRVTITCRASQGINNWLVWYQQKPGKAPKLLIYAATSLQSGVPSRFSGSGSGTDFTLTISSLQPEDFATYYCQQANSFPPTFGQGTKLEIK	31.4	2.84	0.00247	869000	4.7	146	0.0633	8.95e-05	1.41e+06	129	101	108	4.42	0.00418	947000	2.8	1.8	2.1	2.2	0.6	MFI fold change over cells incubated in media only, U266, overnight with 67 nM antibody [7]: 1.5 fold; MFI fold change over cells incubated in media only, U266, overnight with 667 nM antibody [7]: 1.7 fold; Kd [3]: 3.37 nM; koff [3]: 0.00716 s⁻¹; kon [3]: 2.13e+06 M⁻¹ s⁻¹; t1/2 [3]: 1.6 min
mAb21581, parental bivalent anti-BCMA antibody (antibody, V domains shown) VH: EVQLVESGGGLVQPGGSLRLSCAASGFTFSNFWMTWVRQAPGKGLEWVANMNQDGSEKYYVDSVKGRFTISRDNAKSSLYLQMNSLRAEDTAVYYCARDREYCISTSCYDDFDYWGQGTLVTVSS VL: not shown	–	–	–	–	–	–	–	–	–	–	–	–	–	–	–	–	1.2	1.4	2.3	3.7	MFI fold change over cells incubated in media only, U266, overnight with 67 nM antibody [7]: 1.8 fold; MFI fold change over cells incubated in media only, U266, overnight with 667 nM antibody [7]: 2.3 fold; MFI fold change over cells incubated in media only, MM1S, overnight with 67 nM antibody [8]: 7.3 fold; MFI fold change over cells incubated in media only, MM1S, overnight with 667 nM antibody [8]: 7 fold
mAb16711 (antibody, V domains shown, Anti-BCMA monoclonal antibody; Captured by anti-human Fc in SPR) VH: QVQLVESGGGVVQPGRSLRLSCAASGFTFSTYGIHWVRQAPGKGLEWVAVILHDGSSNYYAESVKGRFIISRDNSKNTLYLQMNSLRAEDTALYYCTKRYSEAAGPNWFDPWGQGTLVTVSS VL: DIQMTQSPSSVSASVGDRVTITCRASRGISSWLAWYQQKPGKAPKLLIHAASSLQSGVPSRFSGSGSGTDFTLTISSLQPEDFATYYCQQAISFPFTFGPGTKVDIK	22.2	1.73	0.00347	2.01e+06	3.3	114	0.103	0.00019	1.85e+06	60.8	0.9	90	1.02	0.0011	1.07e+06	10.5	2.8	2.1	3.5	3	MFI fold change over cells incubated in media only, U266, overnight with 67 nM antibody [7]: 2.2 fold; MFI fold change over cells incubated in media only, U266, overnight with 667 nM antibody [7]: 2.2 fold; 90 nM mfBCMA.mmh Bind (RU) [9]: -0.5 RU; binding result [3]: no binding (tested: 30 nM)
mAb16716 (antibody, V domains shown, Anti-BCMA monoclonal antibody; Captured by anti-human Fc in SPR) VH: not shown VL: DIQMTQSPSSVSASLGDRVTITCRASQGISSWLAWYQRKPGKAPKLLIYAASSLQSGVPSRFSGSGSGADFTLTISSLQPEDFATYYCQQAKSVPFTFGPGTKVDIK	26.4	3.56	0.00299	841000	3.9	120	0.0968	8.35e-05	862000	138	–	33.4	18.8	0.00385	205000	3	–	–	–	–	90 nM mfBCMA.mmh Bind (RU) [9]: 0.8 RU; binding result [9]: no binding (tested: 90 nM)
